Measured values reported in article PMC9047069, “Multifaceted Activities of Seven Nanobodies against Complement C4b” (The Journal of Immunology Author Choice, 2022).

Assays:
human complement C4b [1] = target: T1, human complement C4b (human, UniProt P0C0L4, biotin (EZ link Maleimide-PEG2-Biotin) coupled to its thiol group, only where C4b was held on the SPR chip); assay: SPR; biotinylated C4b (50 nM) spotted on a planar streptavidin chip through its thiol group; nanobodies injected in a 14-step twofold dilution series; IBIS-MX96; 20 mM HEPES pH 7.4, 150 mM NaCl, 3 mM MgCl2; simple bimolecular model, NbE3 with mass transport; duplicate; conditions: both partners purified
T1 construct: beta chain (75 kDa) of human complement C4; alpha' chain (87 kDa) of human C4b, the alpha chain of C4 after removal of C4a; gamma chain (33 kDa) of human complement C4; One molecule for unlabelled C4b (SEC, cryo-EM, analyte in SPR), C4b biotinylated at the thiol (ligand in SPR) and C4b deposited on erythrocytes from serum; The CTC domain is not in the deposited models; source: bought: Complement …

human complement C4b [2] = target: T1, human complement C4b; assay: SPR; biotinylated nanobodies (100 nM) spotted on a streptavidin chip; kinetic titration with C4b as analyte, five-step twofold dilution without regeneration, last dissociation 1 h; 20 mM HEPES pH 7.4, 150 mM NaCl, 3 mM MgCl2; NbE11 and NbH11 fitted with mass transport; duplicate; conditions: both partners purified

T1 sequence (P0C0L4 20-675, chain 1 of 3): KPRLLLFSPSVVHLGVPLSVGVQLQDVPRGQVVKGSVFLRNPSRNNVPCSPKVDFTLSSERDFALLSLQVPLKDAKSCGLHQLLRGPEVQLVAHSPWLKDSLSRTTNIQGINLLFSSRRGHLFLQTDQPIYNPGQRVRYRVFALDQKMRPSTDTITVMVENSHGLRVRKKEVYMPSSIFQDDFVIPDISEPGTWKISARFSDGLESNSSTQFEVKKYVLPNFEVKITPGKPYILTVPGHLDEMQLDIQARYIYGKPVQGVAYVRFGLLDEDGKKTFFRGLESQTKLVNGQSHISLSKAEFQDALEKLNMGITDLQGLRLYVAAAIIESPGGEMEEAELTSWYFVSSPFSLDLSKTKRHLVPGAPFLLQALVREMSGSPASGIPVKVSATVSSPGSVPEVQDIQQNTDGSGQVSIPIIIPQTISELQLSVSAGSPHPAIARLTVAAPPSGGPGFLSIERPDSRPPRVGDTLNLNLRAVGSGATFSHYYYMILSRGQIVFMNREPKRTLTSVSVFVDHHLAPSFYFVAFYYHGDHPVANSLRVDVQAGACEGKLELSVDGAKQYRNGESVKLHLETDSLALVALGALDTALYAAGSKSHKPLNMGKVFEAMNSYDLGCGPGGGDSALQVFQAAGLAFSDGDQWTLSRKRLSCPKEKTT
T1 sequence (P0C0L4 757-1446, chain 2 of 3): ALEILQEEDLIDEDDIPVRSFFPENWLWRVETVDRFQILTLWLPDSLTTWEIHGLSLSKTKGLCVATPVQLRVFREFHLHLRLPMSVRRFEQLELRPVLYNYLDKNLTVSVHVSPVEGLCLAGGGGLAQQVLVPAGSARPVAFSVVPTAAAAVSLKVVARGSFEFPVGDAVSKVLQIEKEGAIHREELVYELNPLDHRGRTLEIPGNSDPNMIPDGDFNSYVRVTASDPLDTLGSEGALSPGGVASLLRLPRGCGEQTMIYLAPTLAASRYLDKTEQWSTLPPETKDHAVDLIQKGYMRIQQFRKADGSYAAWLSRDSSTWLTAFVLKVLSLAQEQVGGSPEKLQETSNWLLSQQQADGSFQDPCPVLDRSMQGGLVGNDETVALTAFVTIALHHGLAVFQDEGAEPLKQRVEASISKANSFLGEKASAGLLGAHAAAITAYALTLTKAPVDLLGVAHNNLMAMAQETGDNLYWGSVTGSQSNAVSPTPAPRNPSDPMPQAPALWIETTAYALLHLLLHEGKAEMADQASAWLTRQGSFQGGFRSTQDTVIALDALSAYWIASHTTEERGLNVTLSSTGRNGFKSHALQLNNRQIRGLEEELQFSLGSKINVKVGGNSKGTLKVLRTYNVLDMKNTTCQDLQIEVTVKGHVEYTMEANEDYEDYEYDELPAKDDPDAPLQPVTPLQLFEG
T1 sequence (P0C0L4 1454-1744, chain 3 of 3): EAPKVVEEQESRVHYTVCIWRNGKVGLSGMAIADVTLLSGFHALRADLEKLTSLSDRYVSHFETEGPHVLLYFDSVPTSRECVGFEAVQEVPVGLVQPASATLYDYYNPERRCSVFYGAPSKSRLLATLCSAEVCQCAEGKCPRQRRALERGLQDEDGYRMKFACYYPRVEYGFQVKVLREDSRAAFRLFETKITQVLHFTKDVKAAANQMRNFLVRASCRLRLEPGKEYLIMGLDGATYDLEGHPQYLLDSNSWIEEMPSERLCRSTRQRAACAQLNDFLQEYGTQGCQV

Kd (human complement C4b [1]) [nM]	koff (human complement C4b [1]) [s⁻¹]	Kd (human complement C4b [2]) [nM]	koff (human complement C4b [2]) [s⁻¹]	Binder
0.318 ± 0.01	0.0066	–	–	NbE3 (VHH, Vector: modified pHEN6 with thrombin cleavage site and 6xHis, N-terminal pelB leader; no cleavage of the tag is told; also called NbBE3; source: E. coli BL21 Codon Plus (DE3)-RIL, periplasm, purified (Ni-NTA, SEC)) VHH: EVQLVESGGGLVQAGGSLRLSCAASGSDFSANAVGWYRQAPGKQRVVVASISSTGNTKYSNSVKGRFTISRDNAKNTVYLQMNSLKPEDTAVYYCWLFRFGIENYWGQGTQVTVSS
–	–	0.067 ± 0.006	1.3e-05	NbB5 (VHH, Vector: modified pHEN6 with thrombin cleavage site and 6xHis, N-terminal pelB leader for periplasmic secretion; no cleavage of the tag is told; source: E. coli BL21 Codon Plus (DE3)-RIL, periplasm, purified (Ni-NTA, SEC)) VHH: EVQLVESGGGLVQPGGSLRLSCAASGFTFSSYHMSWVRQAPGKGLEWISVINDSGDLTRYADSVKGRFTISRDNAKNTLYLQMNSLQPEDTAVYSCLKSSDFYSYSNADSRGQGTQVTVSS
–	–	0.014 ± 0.004	3.8e-06	NbB12 (VHH, Vector: modified pHEN6 with thrombin cleavage site and 6xHis, N-terminal pelB leader; no cleavage of the tag is told; also called NbB12-AF488; source: E. coli BL21 Codon Plus (DE3)-RIL, periplasm, purified (Ni-NTA, SEC)) VHH: EVQLVESGGGLVQAGGSLRLSCVASERTYMAWFRQAPGKEREFVAAITSSGMMTEYAPSVKGRFTISRDNAKNTVYLQMNSLKPEDTAVYYCAADLRQRFGERVTEYDYWGQGTQVTVSS
